Substitutions are numbered along the chain they refer to. Read-outs that look alike come from different tables or passages of the source.
Key:
[1] = target: T1, human TIGIT expressed on cells (human, UniProt Q495A1 25-244); assay: cell-based or functional assay
T1 sequence: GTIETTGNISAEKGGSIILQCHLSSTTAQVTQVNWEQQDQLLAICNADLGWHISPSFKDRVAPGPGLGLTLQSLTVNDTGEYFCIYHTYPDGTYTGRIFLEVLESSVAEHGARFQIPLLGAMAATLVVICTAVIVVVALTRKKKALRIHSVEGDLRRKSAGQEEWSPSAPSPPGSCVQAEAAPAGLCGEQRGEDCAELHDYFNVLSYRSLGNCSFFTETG

[2] = target: T1, human TIGIT expressed on cells; assay: cell-based or functional assay; remark: listed apart in the source
[3] = target: T1, human TIGIT expressed on cells; assay: cell-based ELISA, panel 'Binding to human TIGIT-CHO-K1 cells'
[4] = target: T2, rhesus TIGIT expressed on CHO-K1 cells (rhesus monkey); assay: cell-based ELISA, panel 'Binding to rhesus TIGIT-CHOK1 cells'
T2 construct: also called rhesus TIGIT-CHOK1 cells; Cyno/Rhesus TIGIT

human TIGIT-Fc protein [5] = target: T3, human TIGIT-Fc protein (human, UniProt Q495A1 25-141); assay: SPR, Biacore T200, antibody captured on anti-rat IgG Fc, TIGIT-Fc in solution, 1:1 Langmuir fit
T3 construct: not shown: Fc part
T3 sequence: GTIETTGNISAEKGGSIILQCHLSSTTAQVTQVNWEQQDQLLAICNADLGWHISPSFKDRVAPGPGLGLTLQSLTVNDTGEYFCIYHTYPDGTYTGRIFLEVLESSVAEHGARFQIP
Method: (§1) The kinetic binding activity of anti-human TIGIT antibodies 14A6 and 31C6 (made as described in Example 1) and of commercial antibody MBSA43 was measured by surface plasmon resonance using a Biacore T200 system (Biacore, GE Healthcare, Piscataway, N.J.). Approximately 5000 RU of Anti-mouse IgG, GE Healthcare Catalog Number BR-1008-38, or approximately 13,000 RU of Goat Anti-Rat IgG Fc gamma, Fragment Specific, Jackson ImmunoResearch Catalog Number 112-006-071, was immobilized via amine coupling chemistry onto a Series S CM5 sensor chip, catalog number BR-1005-30. Mouse anti-human TIGIT clones, 31C6 and MBSA43, were each injected over the immobilized anti-mouse surfaces at 1 ug/mL for a capture level of 40 RU. Rat anti-human TIGIT clone 14A6 was injected over the immobilized anti-rat surfaces at 1 ug/mL for a capture level of 40 RU. HBS-EP+ buffer (BR-1006-69) was used as the running buffer with a flow rate of 30 μL/min. Varying concentrations of human TIGIT-His protein or TIGIT-Fc protein, ranging from 0.29 nM to 40 nM, at a flow rate of 45 μL/min were injected over the antibody surfaces. Following each Mouse anti-human TIGIT injection cycle for clones 31C6 and MBSA43, the Series S CM5 chip surface was regenerated using one three-minute injection of 10 mM Glycine pH 1.7 at a flow rate of […]. […]

[6] = target: T4, Human TIGIT-His (extracellular domain of hTIGIT with a histidine tag) (human, UniProt Q495A1 25-141); assay: SPR, Biacore T200, antibody captured on anti-rat IgG Fc, TIGIT-His in solution, 1:1 Langmuir fit
T4 construct: also called hTIGIT-His; hTIGIT-HIS
T4 sequence: T3 sequence
Method: as §1

[7] = target: T1, human TIGIT expressed on cells; assay: cell-based ELISA blocking assay: binding of hCD155-hFc to human TIGIT-CHO-K1 cells, antibody titrated
[8] = target: T1, human TIGIT expressed on cells; assay: cell-based ELISA, panel 'Binding to hTIGIT-CHO'
[9] = target: T2, rhesus TIGIT expressed on CHO-K1 cells; assay: cell-based ELISA, panel 'Binding to rhesus TIGIT-CHO'
human TIGIT-Fc protein [10] = target: T3, human TIGIT-Fc protein; assay: SPR, Biacore T200, antibody captured on anti-mouse IgG, TIGIT-Fc in solution, 1:1 Langmuir fit
Method: as §1

[11] = target: T4, Human TIGIT-His (extracellular domain …); assay: SPR, Biacore T200, antibody captured on anti-mouse IgG, TIGIT-His in solution, 1:1 Langmuir fit
Method: as §1

[12] = target: T1, human TIGIT expressed on cells; assay: cell-based ELISA blocking assay: binding of hCD155-hFc to human TIGIT-CHO-K1 cells, antibody titrated; remark: listed apart in the source
[13] = target: T1, human TIGIT expressed on cells; assay: cell-based ELISA, panel 'Binding to human TIGIT-CHO K1 cells'
[14] = target: T2, rhesus TIGIT expressed on CHO-K1 cells; assay: cell-based ELISA, panel 'Binding to rhesus TIGIT CHO K1 cells'

T2 sequence (chain, as listed by the source): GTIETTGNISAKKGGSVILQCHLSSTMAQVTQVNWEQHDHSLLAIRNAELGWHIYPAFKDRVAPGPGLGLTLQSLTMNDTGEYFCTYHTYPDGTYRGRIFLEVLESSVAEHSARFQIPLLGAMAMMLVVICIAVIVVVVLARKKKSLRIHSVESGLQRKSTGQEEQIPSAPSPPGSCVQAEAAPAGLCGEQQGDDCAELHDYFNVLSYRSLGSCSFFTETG

B1: MEB125.31C6.A1.205 VH4/VL1 (antibody, human IgG1, V domains shown)
VH: EVQLVQSGAEVKKPGASVKVSCKASGYTFSSYVMHWVRQAPGQGLEWIGYIDPYNDGAKYAQKFQGRVTLTSDKSTSTVYMELSSLRSEDTAVYYCARGGPYGWYFDVWGQGTTVTVSS
VL: DIQMTQSPSSLSASVGDRVTITCRASEHIYSYLSWYQQKPGKAPKLLIYNAKTLAEGVPSRFSGSGSGTDFTLTISSLQPEDFATYYCQHHFGSPLTFGQGTRLEIK
Q: With B1 as the binder, how does the “EC50 of IL-2 rescue in hTIGIT-Jurkat / hCD155-JY co-culture” value [1] read?
A: 0.62 µg/mL

B2: MEB125.31C6.A1.205 VH5/VL3 (antibody, human IgG1, V domains shown)
VH: B1 VH with A16S, V79A
VL: B1 VL with A43V, F83V
Q: Which “EC50 of IL-2 rescue in hTIGIT-Jurkat / hCD155-JY co-culture” value [1] does the source give for B2 here?
A: 1.2 µg/mL

B3: MEB125.31C6.A1.205 VH5/VL4 (antibody, human IgG1, V domains shown)
VH: B1 VH with A16S, V79A
VL: B1 VL with A43V, D70Q, F83V
Q: Which “EC50 of IL-2 rescue in hTIGIT-Jurkat / hCD155-JY co-culture” value [1] does the source give for B3 here?
A: 1.2 µg/mL

B4: 14A6 (rat anti-human TIGIT antibody, clone LB155.14A6.G2.A8) (antibody, V domains shown)
VH: EVQLQESGPGLVKPSQSLSLTCSVTGSSIASDYWGWIRKFPGNKMEWMGFITYSGSTSYNPSLKSRISITRDTSKNQFFLQLHSVTTDDTATYSCARMPSFITLASLSTWEGYFDFWGPGTMVTVSS
VL: DIQMTQSPSLLSASVGDRVTLNCKASQSIHKNLAWYQQKLGEAPKFLIYYANSLQTGIPSRFSGSGSGTDFTLTISGLQPEDVATYFCQQYYSGWTFGGGTKVELK
notes: also called 14A6 (rIgG2a/K)
Q: Which “EC50 of IL-2 rescue in hTIGIT-Jurkat / THP-1 co-culture” value [2] does the source give for B4 here?
A: 0.19 µg/mL

Q: What about the “IL-2 rescue relative to MBSA43 (10 µg/ml)” value [2] of the same binder?
A: 82%

Q: And the “increase in IFNγ production, BC4-clone 49 T cells with JY-hCD155 cells” value [2]?
A: ~2 fold

Q: And the “EC50 (read off the curve)” value [3]?
A: ~0.1 µg/mL

Q: And the “EC50 (read off the curve)” value [4]?
A: ~0.2 µg/mL

Q: And the Kd (human TIGIT-Fc protein [5])?
A: 3.12 pM

Q: What about the Kd [6] of the same binder?
A: 3.09 pM

Q: And the “IC50 (read off the curve)” value [7]?
A: ~0.1 µg/mL

B5: 31C6 (mouse anti-human TIGIT antibody, clone MEB125.31C6.A1.205) (antibody, mouse IgG1, V domains shown)
VH: EVQLQQSGPELVKPGSSVKMSCKASGYTFSSYVMHWVKQKPGQGLEWIGYIDPYNDGAKYNEKFKGKATLTSDKSSSTAYMELSSLTSEDSAVYYCARGGPYGWYFDVWGAGTTVTVSS
VL: DIQMTQSPASLSASVGETVTITCRASEHIYSYLSWYQQKQGKSPQLLVYNAKTLAEGVPSRFSGSGSGTQFSLKINSLQPEDFGTYYCQHHFGSPLTFGAGTTLELK
notes: Mouse IgG1/kappa; also called 31C6 (mIgG1/K); MEB125.31C6.A1.205 mIgG1
Q: Which “EC50 of IL-2 rescue in hTIGIT-Jurkat / THP-1 co-culture” value [2] does the source give for B5 here?
A: 0.14 µg/mL

Q: And the “EC50 of IL-2 rescue in hTIGIT-Jurkat / hCD155-JY co-culture” value [2]?
A: 0.73 µg/mL

Q: What about the “IL-2 rescue relative to MBSA43 (10 µg/ml)” value [2] of the same binder?
A: 118%

Q: What about the “increase in IFNγ production, BC4-clone 49 T cells with JY-hCD155 cells” value [2] of the same binder?
A: ~2 fold

Q: And the “EC50 (read off the curve)” value [8]?
A: ~0.03 µg/mL

Q: What about the “EC50 (read off the curve)” value [9] of the same binder?
A: ~0.06 µg/mL

Q: And the Kd (human TIGIT-Fc protein [10])?
A: 10.9 pM

Q: What about the Kd [11] of the same binder?
A: 34.4 pM

Q: What about the “IC50 (read off the curve)” value [12] of the same binder?
A: ~0.9 µg/mL

B6: Mouse human chimera MEB125.31C6.A1.205 IgG1 (antibody, V domains shown)
VH: B5 VH
VL: B5 VL
Q: For B6, which “EC50 of IL-2 rescue in hTIGIT-Jurkat / hCD155-JY co-culture” value [2] is on record?
A: 0.91 µg/mL

B7: 28H5 (mouse anti-human TIGIT antibody, clone TC167.28H5.H5) (antibody, mouse IgG1, V domains shown)
VH: DVQLQESGPGLVKPSQSLSLTCTVTGYSITSDYAWNWIRQFPGNKLEWMGYISNSGSASYNPSLKSRISITRDTSKNQFFLQLNSVTTEDTATYYCATLIYYDYGGAMNFWGQGTSVTVSS
VL: DIVMTQSHKFMSTSVGDRVSITCKASQGVSTTVAWYQQKPGQSPKLLIYSASYRYTGVPDRFTGSGSGTDFTFTISSVQSEDLAVYYCQHYYSTPWTFGGGTKLEIK
notes: Mouse IgG1/kappa
Q: What does the source list for B7?
A: EC50 of IL-2 rescue in hTIGIT-Jurkat / THP-1 co-culture [2]: 0.24 µg/mL; increase in IFNγ production, BC4-clone 49 T cells with JY-hCD155 cells [2]: ~2 fold; EC50 (read off the curve) [13]: ~100 µg/mL; EC50 (read off the curve) [14]: ~0.05 µg/mL

Source: US20200270346A1 (Merck Sharp & Dohme, published 2020)
